Experimental data as given in PMC5529482.

Legend:
[1] = molecular target: mouse TNFR2-Fc fusion protein (mouse) (UniProt P25119); assay: ELISA; TNFR1-Fc or TNFR2-Fc coated at 1 µg/ml in PBS, 4 °C overnight; TNF muteins in 2% skim milk powder in PBS, 1 h RT; detected with anti-TNF clone F6C5 and HRP anti-mouse IgG
[2] = molecular target: mouse TNFR2-Fc fusion protein (mouse) (UniProt P25119); assay: quartz crystal microbalance; mouse TNFR2-Fc chemically immobilised on a carboxyl sensor chip at high density (270 Hz, saturated); muteins 2-32 nM; PBST (PBS, 0.1% Tween 20) pH 7.4, 37 °C; Attana Cell 200
[3] = molecular target: mouse TNFR2-Fc fusion protein (mouse) (UniProt P25119); assay: quartz crystal microbalance; mouse TNFR2-Fc chemically immobilised on a carboxyl sensor chip at low density (130 Hz, non-saturated); muteins 8-256 nM; PBST (PBS, 0.1% Tween 20) pH 7.4, 37 °C; Attana Cell 200; biphasic curves for p53- and GCN4-sc-mTNFR2
[4] = molecular target: p53-sc-mTNFR2 (not stated | mouse) (UniProt P04637); assay: SEC; approx. 20 µg protein on BioSep-SEC-S2000 in PBS, 0.5 ml/min; size by standard proteins
[5] = molecular target: EHD2-sc-mTNFR2 (not stated | mouse) (UniProt P06804); assay: as above

Substance	EC50 [1]	Kd [2]	koff [2]	kon [2]	Kd1 [3]	Kd2 [3]	stoichiometry N [4]	Kd [3]	koff [3]	kon [3]	stoichiometry N [5]
sc-mTNFR2 (mouse TNFR2-specific (D221N/A223R) single-chain mouse TNF) (from UniProt P06804 91-235; P06804 91-235; P06804 91-235) (ligand)	1550 pM	449 pM	0.000399 s⁻¹	808000 M⁻¹ s⁻¹	–	–	–	–	–	–	–
p53-sc-mTNFR2 (from UniProt P04637 320-359; P06804 91-235; P06804 91-235; P06804 91-235) (ligand)	74 pM	43.7 pM	–	–	50.9 nM	3.97 nM	4	–	–	–	–
EHD2-sc-mTNFR2 (from UniProt P06804 91-235; P06804 91-235; P06804 91-235) (ligand)	110 pM	61.5 pM	3.74e-05 s⁻¹	607000 M⁻¹ s⁻¹	–	–	–	118000 pM	0.063 s⁻¹	533000 M⁻¹ s⁻¹	2
